Test results published in patent US20220306734A1 (H LUNDBECK A S, published 2022).
Changes are numbered by the printed parent chain. Like-named read-outs stand apart in the source and are kept apart here.

B1: mGluR5 Ab20 (antibody, V domains shown)
VH: QSVEESGGRLVTPGTPLTLTCTVSGFSLSDYGLNWVRQAPGKGLEWIGIIYASGSTYYANWAKGRFTISKTSTTVDLKMTSPTTEDTATYFCVRDSSATYDYFNLWGPGTLVTVSS
VL: YDMTQTPASVEVAVGGTVTIKCQASQSISSYLAWYQQKPGQPPRLLIYGASNLASGVPSRFKGSGSGTEYTLTISDLECADAATYYCQQALSPSNVDNAFGGGTEVVVKR
B2: mGluR5 Ab16 (antibody, V domains shown)
VH: QSVEESGGRLVTPGTPLTLTCTASGFTISSYSMIWVRQAPGKGLESIGWINTGGSAYYANWAKGRFTISRTSTTVDLKMTSLTTEDTATYFCARDNNWSFNLWGQGTLVTVSS
VL: DIVMTQTPSSVSAAVGGTVTIKCQASQSIGTNLAWYQQKSGQPPKRLTYRASNLESGVPSRFKGSGSGTEFTLTISDLECADAATYYCQGGYYREGNSPTYPFGGGTEVVVKR
notes: Rabbit variable regions on human heavy and light chain constant regions (chimeric)
B3: mGluR5 Ab3 (antibody, V domains shown)
VH: QSLEESGGRLVTPGTPLTLTCTVSGIDLSSYAVGWVRQAPGKGLEYIGIIYASGNTWYASWVKGRFTISKTSTTVDLKLASLTTEDTATYFCARGHGATYDYFNLWGPGTLVTVSS
VL: AYDMTQTPASVEVAVGGTVTIKCQASQSISSYLAWYQQKPGQPPKLLIYDASDLASGVPSRFKGSGSGTEYTLTISGVQCDDAATYYCQQGLATANVDNVFGGGTEVVVKR
notes: as for B2
B4: mGluR5 Ab14 (antibody, V domains shown)
VH: QQQLEESGGGLVKPGGTLTLTCKGSGIDFNDYYYMCWVRQAPGKGLEWIACIYNGDGETYYANWAKGRFTISKTSSTTVTLQMTSLTAADTATYFCARGSGVGSYGYNFWGQGTLVTVSS
VL: DIVMTQTPASVEAAVGGTVTIKCQASESIYSNLAWYQQKPGQPPKLLIYRASNLASGVPSRFKGSGSGTEFTLTISDLECADAATYYCQGYYASTVTNAFGGGTEVVVKR
notes: as for B2
B5: mGluR5 Ab13 (antibody, V domains shown)
VH: QSLEESGGDLVKPGASLTLTCTASGFSFSSSDYMCWVRQAPGKGLEWIGCIYTGDGTTYYASWAKGRFTISKTSSTTVTLQMTSLTAADTATYFCARGAGVGSYGYNLWGPGTLVTVSS
VL: DIVMTQTPASVEAAVGDTVTINCQASQNIYSNLAWYQQKPGQPPKLLIYRASTLASGVPSRFKGSGSGTQFTLTISDLECADAATYYCQSYYASSISNYFGGGTEVVVKR
notes: as for B2
B6: mGluR5 Ab23 (antibody, V domains shown)
VH: B4 VH with G24A, L46P, E58D, F109L
VL: B4 VL with N53T, V96I, A99V
B7: mGluR5 Ab15 (antibody, V domains shown)
VH: QQLVESGGGLVKPGGTLTLTCKGSGIDFNDYYYICWVRQAPGKGLEWILCIYNGDGETYYANWAKGRFTISKTSSTTVTLQMTSLTGADTATYFCARGSGVGSYGYNFWGQGTLVTVSS
VL: B4 VL with S28N, A99G
notes: as for B2

Columns and labels:
[1] = biological target: full-length (FL) human mGluR5 on BA/F3-mGluR5 clone 10C9 cells (human) (UniProt P41594); experiment: flow cytometry, BA/F3-mGluR5 10C9 cells, 10 ug/ml antibody
[2] = biological target: full-length (FL) human mGluR5 on BA/F3-mGluR5 clone 10C9 cells (human) (UniProt P41594); experiment: cell-based or functional assay
[3] = biological target: human mGluR5 extracellular domain (human-mGluR5-ECD) (human) (UniProt P41594); experiment: HTRF, soluble ECD
Sequence of human mGluR5 extracellular domain (human-mGluR5-ECD) (human) (P41594 other isoform, or with tags, fused parts or gaps): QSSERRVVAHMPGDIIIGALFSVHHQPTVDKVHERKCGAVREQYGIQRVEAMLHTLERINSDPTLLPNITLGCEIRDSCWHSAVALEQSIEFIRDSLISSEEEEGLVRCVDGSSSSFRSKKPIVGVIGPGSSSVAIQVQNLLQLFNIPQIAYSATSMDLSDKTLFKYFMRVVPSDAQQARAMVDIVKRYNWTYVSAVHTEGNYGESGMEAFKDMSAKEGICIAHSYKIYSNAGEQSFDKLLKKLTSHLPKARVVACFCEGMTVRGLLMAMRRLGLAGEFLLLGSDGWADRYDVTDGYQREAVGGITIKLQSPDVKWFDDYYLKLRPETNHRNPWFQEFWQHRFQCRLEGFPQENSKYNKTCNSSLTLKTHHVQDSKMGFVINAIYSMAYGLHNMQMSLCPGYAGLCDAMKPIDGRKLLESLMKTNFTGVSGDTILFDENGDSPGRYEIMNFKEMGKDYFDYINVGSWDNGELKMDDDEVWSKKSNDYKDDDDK

[4] = biological target: human mGluR5 extracellular domain (human-mGluR5-ECD) (human) (UniProt P41594); experiment: HTRF, soluble ECD; remark: listed apart in the source
[5] = biological target: T1, rat mGluR5 extracellular domain (rat-mGluR5-ECD) (rat, UniProt P31424 21-504); experiment: HTRF, soluble ECD
T1 construct: ECD construct made 'in a similar fashion' to the human one
T1 sequence (P31424 other isoform, or with tags, fused parts or gaps limits assumed, form in doubt): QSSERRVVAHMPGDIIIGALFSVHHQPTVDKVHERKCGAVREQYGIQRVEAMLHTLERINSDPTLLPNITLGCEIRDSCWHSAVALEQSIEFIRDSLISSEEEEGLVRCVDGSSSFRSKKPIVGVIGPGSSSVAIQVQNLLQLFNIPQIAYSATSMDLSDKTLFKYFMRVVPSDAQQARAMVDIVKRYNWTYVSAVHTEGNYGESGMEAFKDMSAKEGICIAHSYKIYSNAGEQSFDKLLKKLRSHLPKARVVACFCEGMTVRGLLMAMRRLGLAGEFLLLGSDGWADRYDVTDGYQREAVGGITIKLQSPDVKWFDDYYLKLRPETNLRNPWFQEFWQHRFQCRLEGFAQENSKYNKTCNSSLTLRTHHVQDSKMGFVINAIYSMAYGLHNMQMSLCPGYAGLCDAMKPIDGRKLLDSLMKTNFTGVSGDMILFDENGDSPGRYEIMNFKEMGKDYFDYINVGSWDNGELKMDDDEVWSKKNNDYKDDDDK
Description: Binding of antibodies to mGluR5/mGluRJ measured via Homogeneous Time-Resolved Fluorescence (HTRF). Binding assays were performed using HTRF reagents from CisBio. Ten microliters of an antibody dilution series (highest final concentration of 30 nM) was incubated with 10 μl of mGluR-ECD (10 nM final concentration) in HTRF buffer (50 mM Phosphate buffer pH7, 0.8M KF (potassium fluoride), 0.2% BSA). Twenty microliters of Europium-labeled anti-hu-Fc donor (2 nM final concentration, CisBio Catalog No. 61HFCKLB) and 20 μl of XL665-labeled anti-Flag acceptor (60 nM final concentration, CisBio Catalog No. 61FG2XLB) were added to each well and incubated for 1 hour at room temperature. Alternatively, the antibody dilution series was incubated with 10 μl of biotinylated mGluR-ECD (10 nM final concentration), and 20 μl of Europium-labeled anti-hu-Fc donor (2 nM final concentration) and 20 μl of d2-labeled streptavidin acceptor (60 nM final concentration, CisBio Catalog No. 610SADLB) were added to each well. Fluorescence was measured at 620 and 665 nm with a delay of 300 μsec. Results were expressed as the ratio of signal at 665 nm over 620 nm. EC₅₀ values were calculated for binding of Ab1-Ab23 to human-mGluR5-ECD, of Ab1-Ab21 to rat-mGluR5-ECD, and of Ab1, Ab2 and Ab4-Ab12 to monkey-mGluR5-ECD and to human-mGluR1-ECD (TABLE 1).

Row | mGluR5 (FL) cell binding-fold over background [1] [fold] | pERK Assay Inhibition IC50-nM [2] [nM] | EC50 [3] [nM] | EC50 [4] [nM] | EC50 [5] [nM] | Binder
1 | 26.1 | 2.36 | 0.364 | < 2 | – | B1
2 | 40 | 0.17 | 0.439 | < 2 | 0.427 | B2
3 | 31.1 | 3.91 | 0.536 | < 2 | 0.487 | B3
4 | 40.6 | 0.15 | 0.371 | < 2 | 0.308 | B4
5 | 37.4 | 0.22 | 0.183 | < 2 | 0.283 | B5
6 | 37.9 | 0.14 | 0.367 | < 2 | – | B6
7 | 41.3 | 0.18 | 0.506 | < 2 | 0.448 | B7
